Laboratory results taken from patent publication US20140147444A1 (published 2014).
Numbering of substitutions follows the chain as printed. Numbers in names are those of the source. Like-named read-outs stand apart in the source and are kept apart here. Blank lines part the entries; values can stand above or below the binder they belong to.

Experiments:
Experiment in all cases: SPR (BIAcore), immobilized OPGbp [143-317]
[1] = molecular target: T1, human OPGbp [143-317] (human, UniProt O14788 143-317)
T1 construct: also called OPGL
T1 sequence (looked up): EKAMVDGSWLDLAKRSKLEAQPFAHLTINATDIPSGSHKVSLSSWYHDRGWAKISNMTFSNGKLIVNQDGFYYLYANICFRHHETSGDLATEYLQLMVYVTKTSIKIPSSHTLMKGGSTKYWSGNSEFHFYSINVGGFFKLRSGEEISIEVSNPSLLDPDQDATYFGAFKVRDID

[2] = molecular target: T1, human OPGbp [143-317]; remark: listed apart in the source
[3] = molecular target: T1, human OPGbp [143-317]; remark: listed apart in the source
[4] = molecular target: T1, human OPGbp [143-317]; remark: listed apart in the source

Kd [2]: 7.6 nM
koff [2]: 0.00436 s⁻¹
kon [2]: 568000 M⁻¹ s⁻¹
B2: “AT” antibody variant N98I (heavy chain CDR3) (antibody, name in Kabat numbering, V domains shown)
VH: QVQLVQSGAEVRKPGASVKVSCKASGYDFSNYAIHWVRQAPGQRLEWMGWINAGNGNTKFSQKFQGRITVTRDTAASTAYMELRSLRSEDTAVYYCARDSSIMVRGIIIAYYFDYWGQGTLVTVSS
VL: EIVMTQSPSSLSASVGDRVTITCRASQSISRYLNWYQLKPGKAPRLLIYGASSLQSGVPSRFSGSGSGAEFTLTISSLQPEDIATYYCQHTRAFGQGTKVEIKR
notes: not shown: human IgG1 CH1, hinge, CH2 and CH3

Kd [4]: 12.4 nM
koff [4]: 0.029 s⁻¹
kon [4]: 2.33e+06 M⁻¹ s⁻¹
B5: “AT” antibody variant S97M (heavy chain CDR3) (antibody, name in Kabat numbering, V domains shown)
VH: B2 VH with S101M, I102N
VL: B2 VL
notes: as for B2

Kd [3]: 0.67 nM
koff [3]: 0.00185 s⁻¹
kon [3]: 2.75e+06 M⁻¹ s⁻¹
B8: “AT” antibody variant S96Y (heavy chain CDR3) (antibody, name in Kabat numbering, V domains shown)
VH: B2 VH with S100Y, I102N
VL: B2 VL
notes: as for B2

binding result [4]: no binding
B9: “AT” antibody variant S97F (heavy chain CDR3) (antibody, name in Kabat numbering, V domains shown)
VH: B2 VH with S101F, I102N
VL: B2 VL
notes: as for B2

binding result [4]: no binding
B11: “AT” antibody variant S97G (heavy chain CDR3) (antibody, name in Kabat numbering, V domains shown)
VH: B2 VH with S101G, I102N
VL: B2 VL
notes: as for B2

Kd [2]: 41.3 nM
koff [2]: 0.0112 s⁻¹
kon [2]: 272000 M⁻¹ s⁻¹
B12: “AT” antibody variant N98Y (heavy chain CDR3) (antibody, name in Kabat numbering, V domains shown)
VH: B2 VH with I102Y
VL: B2 VL
notes: as for B2

Kd [2]: 1.06 nM
koff [2]: 0.00234 s⁻¹
kon [2]: 2.2e+06 M⁻¹ s⁻¹
B13: “AT” antibody variant N98H (heavy chain CDR3) (antibody, name in Kabat numbering, V domains shown)
VH: B2 VH with I102H
VL: B2 VL
notes: as for B2

Kd [2]: 0.3 nM
koff [2]: 0.00108 s⁻¹
kon [2]: 3.59e+06 M⁻¹ s⁻¹
B16: “AT” antibody variant N98R (heavy chain CDR3) (antibody, name in Kabat numbering, V domains shown)
VH: B2 VH with I102R
VL: B2 VL
notes: as for B2

Kd [2]: 24.3 nM
koff [2]: 0.00559 s⁻¹
kon [2]: 230000 M⁻¹ s⁻¹
B17: “AT” antibody variant N98G (heavy chain CDR3) (antibody, name in Kabat numbering, V domains shown)
VH: B2 VH with I102G
VL: B2 VL
notes: as for B2

Kd [4]: 24.5 nM
koff [4]: 0.0269 s⁻¹
kon [4]: 1.1e+06 M⁻¹ s⁻¹
B18: “AT” antibody variant S97P (heavy chain CDR3) (antibody, name in Kabat numbering, V domains shown)
VH: B2 VH with S101P, I102N
VL: B2 VL
notes: as for B2

Kd [4]: 0.4 nM
koff [4]: 0.00578 s⁻¹
kon [4]: 1.45e+07 M⁻¹ s⁻¹
B21: “AT” antibody variant S97K (heavy chain CDR3) (antibody, name in Kabat numbering, V domains shown)
VH: B2 VH with S101K, I102N
VL: B2 VL
notes: as for B2

Kd [4]: 0.87 nM
koff [4]: 0.0018 s⁻¹
kon [4]: 2.1e+06 M⁻¹ s⁻¹
B22: “AT” antibody variant S97I (heavy chain CDR3) (antibody, name in Kabat numbering, V domains shown)
VH: B2 VH with S101I, I102N
VL: B2 VL
notes: as for B2

Kd [2]: 27.5 nM
koff [2]: 0.0814 s⁻¹
kon [2]: 2.96e+06 M⁻¹ s⁻¹
B23: “AT” antibody variant N98M (heavy chain CDR3) (antibody, name in Kabat numbering, V domains shown)
VH: B2 VH with I102M
VL: B2 VL
notes: as for B2

Kd [2]: 0.81 nM
koff [2]: 0.00151 s⁻¹
kon [2]: 1.86e+06 M⁻¹ s⁻¹
B24: “AT” antibody variant N98Q (heavy chain CDR3) (antibody, name in Kabat numbering, V domains shown)
VH: B2 VH with I102Q
VL: B2 VL
notes: as for B2

binding result [4]: no binding
B27: “AT” antibody variant S97W (heavy chain CDR3) (antibody, name in Kabat numbering, V domains shown)
VH: B2 VH with S101W, I102N
VL: B2 VL
notes: as for B2

Kd [4]: 4.59 nM
koff [4]: 0.00411 s⁻¹
kon [4]: 895000 M⁻¹ s⁻¹
B29: “AT” antibody variant S97N (heavy chain CDR3) (antibody, name in Kabat numbering, V domains shown)
VH: B2 VH with S101N, I102N
VL: B2 VL
notes: as for B2

binding result [4]: no binding
B30: “AT” antibody variant S97D (heavy chain CDR3) (antibody, name in Kabat numbering, V domains shown)
VH: B2 VH with S101D, I102N
VL: B2 VL
notes: as for B2

Kd [3]: 1.26 nM
koff [3]: 0.00203 s⁻¹
kon [3]: 1.61e+06 M⁻¹ s⁻¹
B35: “AT” antibody variant S96W (heavy chain CDR3) (antibody, name in Kabat numbering, V domains shown)
VH: B2 VH with S100W, I102N
VL: B2 VL
notes: as for B2

Kd [2]: 1.13 nM
koff [2]: 0.00171 s⁻¹
kon [2]: 1.51e+06 M⁻¹ s⁻¹
B37: “AT” antibody variant N98P (heavy chain CDR3) (antibody, name in Kabat numbering, V domains shown)
VH: B2 VH with I102P
VL: B2 VL
notes: as for B2

The remaining lines, values behind:

B1: “AT” antibody variant N98A (heavy chain CDR3) (antibody, name in Kabat numbering, V domains shown)
VH: B2 VH with I102A
VL: B2 VL
notes: as for B2
Kd [1]: 0.67 nM
koff [1]: 0.0009 s⁻¹
kon [1]: 1.3e+06 M⁻¹ s⁻¹

B3: “AT” antibody variant N98F (heavy chain CDR3) (antibody, name in Kabat numbering, V domains shown)
VH: B2 VH with I102F
VL: B2 VL
notes: as for B2
Kd [2]: 26600 nM
koff [2]: 0.099 s⁻¹
kon [2]: 3700 M⁻¹ s⁻¹

B4: “AT” antibody variant S96V (heavy chain CDR3) (antibody, name in Kabat numbering, V domains shown)
VH: B2 VH with S100V, I102N
VL: B2 VL
notes: as for B2
Kd [3]: 2.25 nM
koff [3]: 0.0121 s⁻¹
kon [3]: 5.37e+06 M⁻¹ s⁻¹

B6: “AT” antibody variant S97Q (heavy chain CDR3) (antibody, name in Kabat numbering, V domains shown)
VH: B2 VH with S101Q, I102N
VL: B2 VL
notes: as for B2
Kd [4]: 8.19 nM
koff [4]: 0.00598 s⁻¹
kon [4]: 730000 M⁻¹ s⁻¹

B7: “AT” antibody variant S97E (heavy chain CDR3) (antibody, name in Kabat numbering, V domains shown)
VH: B2 VH with S101E, I102N
VL: B2 VL
notes: as for B2
Kd [4]: 1940 nM

B10: “AT” antibody variant S97R (heavy chain CDR3) (antibody, name in Kabat numbering, V domains shown)
VH: B2 VH with S101R, I102N
VL: B2 VL
notes: as for B2
Kd [4]: 28.9 nM
koff [4]: 0.118 s⁻¹
kon [4]: 4.09e+06 M⁻¹ s⁻¹

B14: “AT” antibody variant N98S (heavy chain CDR3) (antibody, name in Kabat numbering, V domains shown)
VH: B2 VH with I102S
VL: B2 VL
notes: as for B2
Kd [2]: 0.58 nM
koff [2]: 0.00154 s⁻¹
kon [2]: 2.67e+06 M⁻¹ s⁻¹

B15: “AT” antibody variant S97V (heavy chain CDR3) (antibody, name in Kabat numbering, V domains shown)
VH: B2 VH with S101V, I102N
VL: B2 VL
notes: as for B2
Kd [4]: 1.18 nM
koff [4]: 0.00358 s⁻¹
kon [4]: 3.04e+06 M⁻¹ s⁻¹

B19: “AT” antibody variant N98K (heavy chain CDR3) (antibody, name in Kabat numbering, V domains shown)
VH: B2 VH with I102K
VL: B2 VL
notes: as for B2
binding result [2]: no binding

B20: “AT” antibody variant S97H (heavy chain CDR3) (antibody, name in Kabat numbering, V domains shown)
VH: B2 VH with S101H, I102N
VL: B2 VL
notes: as for B2
Kd [4]: 3 nM
koff [4]: 0.00248 s⁻¹
kon [4]: 839000 M⁻¹ s⁻¹

B25: “AT” antibody variant N98W (heavy chain CDR3) (antibody, name in Kabat numbering, V domains shown)
VH: B2 VH with I102W
VL: B2 VL
notes: as for B2
Kd [2]: 2.93 nM
koff [2]: 0.00768 s⁻¹
kon [2]: 2.62e+06 M⁻¹ s⁻¹

B26: “AT” antibody variant N98V (heavy chain CDR3) (antibody, name in Kabat numbering, V domains shown)
VH: B2 VH with I102V
VL: B2 VL
notes: as for B2
Kd [2]: 0.43 nM
koff [2]: 0.000197 s⁻¹
kon [2]: 456000 M⁻¹ s⁻¹

B28: “AT” antibody variant S97T (heavy chain CDR3) (antibody, name in Kabat numbering, V domains shown)
VH: B2 VH with S101T, I102N
VL: B2 VL
notes: as for B2
Kd [4]: 2.51 nM
koff [4]: 0.00116 s⁻¹
kon [4]: 463000 M⁻¹ s⁻¹

B31: “AT” antibody variant N98D (heavy chain CDR3) (antibody, name in Kabat numbering, V domains shown)
VH: B2 VH with I102D
VL: B2 VL
notes: as for B2
Kd [2]: 0.46 nM
koff [2]: 0.00312 s⁻¹
kon [2]: 6.85e+06 M⁻¹ s⁻¹

B32: “AT” antibody variant N98E (heavy chain CDR3) (antibody, name in Kabat numbering, V domains shown)
VH: B2 VH with I102E
VL: B2 VL
notes: as for B2
Kd [2]: 1.32 nM
koff [2]: 0.00359 s⁻¹
kon [2]: 2.72e+06 M⁻¹ s⁻¹

B33: “AT” antibody variant S97L (heavy chain CDR3) (antibody, name in Kabat numbering, V domains shown)
VH: B2 VH with S101L, I102N
VL: B2 VL
notes: as for B2
Kd [4]: 0.92 nM
koff [4]: 0.00069 s⁻¹
kon [4]: 750000 M⁻¹ s⁻¹

B34: “AT” antibody variant S97Y (heavy chain CDR3) (antibody, name in Kabat numbering, V domains shown)
VH: B2 VH with S101Y, I102N
VL: B2 VL
notes: as for B2
binding result [4]: no binding

B36: “AT” antibody variant N98L (heavy chain CDR3) (antibody, name in Kabat numbering, V domains shown)
VH: B2 VH with I102L
VL: B2 VL
notes: as for B2
Kd [2]: 0.82 nM
koff [2]: 0.00122 s⁻¹
kon [2]: 1.48e+06 M⁻¹ s⁻¹
